Test results from the supplement of paper PMC9233669.
Variants at the floor of the assay were thinned out.

Tests used:
biotinyl-Met-oxazolone = test: self-aminoacylation, catalytic enhancement (BMO) (fold over background); higher = more active; k-Seq, kA / k0A0; sequences stand for … in GGGAAUGGAUCCACAUCUACGAAUUC…UUCACUGCAGACUUGACGAAGCUG
Outline: (§1)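 Catalytic enhancement equals the median kA over the uncatalyzed rate, the latter read from the low-activity peak of a bimodal Gaussian fit. Values of kA came from fitting each sequence's fraction reacted to a pseudo-first-order model, with 1000 bootstraps. Reacted RNA was captured with streptavidin and quantified by triplicate qPCR and Illumina sequencing after 90 minutes at room temperature with 2–1250 μM biotinyl-aminoacyl-oxazolone and 0.43 μM mutagenized RNA pools bearing a 21-nt variable region.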

biotinyl-Ile-oxazolone = test: self-aminoacylation, catalytic enhancement (BIO) (fold over background); higher = more active; k-Seq, kA / k0A0; sequences stand for … in GGGAAUGGAUCCACAUCUACGAAUUC…UUCACUGCAGACUUGACGAAGCUG
Outline: as §1

biotinyl-Leu-oxazolone = test: self-aminoacylation, catalytic enhancement (BLO) (fold over background); higher = more active; k-Seq, kA / k0A0; sequences stand for … in GGGAAUGGAUCCACAUCUACGAAUUC…UUCACUGCAGACUUGACGAAGCUG
Outline: as §1

biotinyl-Val-oxazolone = test: self-aminoacylation, catalytic enhancement (BVO) (fold over background); higher = more active; k-Seq, kA / k0A0; sequences stand for … in GGGAAUGGAUCCACAUCUACGAAUUC…UUCACUGCAGACUUGACGAAGCUG
Outline: as §1

biotinyl-Trp-oxazolone = test: self-aminoacylation, catalytic enhancement (BWO) (fold over background); higher = more active; k-Seq, kA / k0A0; sequences stand for … in GGGAAUGGAUCCACAUCUACGAAUUC…UUCACUGCAGACUUGACGAAGCUG
Outline: as §1

biotinyl-Phe-oxazolone = test: self-aminoacylation, catalytic enhancement (BFO) (fold over background); higher = more active; k-Seq, kA / k0A0; sequences stand for … in GGGAAUGGAUCCACAUCUACGAAUUC…UUCACUGCAGACUUGACGAAGCUG
Outline: as §1

Sequence | self-aminoacylation (biotinyl-Met-oxazolone) | self-aminoacylation (biotinyl-Ile-oxazolone) | self-aminoacylation (biotinyl-Leu-oxazolone) | self-aminoacylation (biotinyl-Val-oxazolone) | self-aminoacylation (biotinyl-Trp-oxazolone) | self-aminoacylation (biotinyl-Phe-oxazolone)
AAGUUUGCUAAUAUUCGCAAC [Fam3.1 aminoacylation ribozyme variant] | 1.22 | 1.15 | 1.11 | 1.17 | 2.36 | 0.972
UCACGCUUCAAGCAAUCGGUC [Fam1B.1 aminoacylation ribozyme variant] | 1.56 | 1.32 | 2.46 | 1.7 | 41.6 | 84.1
AUUUCCCUGGUCAUCGAGUAA [Fam2.1 aminoacylation ribozyme variant] | 2.39 | 1.56 | 2.52 | 1.83 | 2.37 | 3.9
AUCCACCUGGGUCAUCGGGUG [Fam2.2 aminoacylation ribozyme variant] | 9.47 | 4.48 | 8.16 | 6.05 | 7.25 | 41.8
AAGUUUGCUAAUAGUCGCAGC [Fam3.1 aminoacylation ribozyme variant] | 0.956 | 1.17 | 0.821 | 0.913 | 1.99 | 1.11
AUUGCCCUGGUCAUUGAGUGA [Fam2.1 aminoacylation ribozyme variant] | 8.44 | 3.72 | 7.3 | 4.2 | 9.51 | 64.3
AUUCAGCUAGGUAAUCGGGUG [Fam2.2 aminoacylation ribozyme variant] | 4.03 | 2.69 | 4.57 | 2.65 | 4.43 | 23.8
AUUAACCUAGGUCAUAGGGUG [Fam2.2 aminoacylation ribozyme variant] | 1.41 | 1.29 | 1.74 | 1.36 | 2.08 | 1.19
CUACUUCAAACAAUCGUACUG [Fam1A.1 aminoacylation ribozyme variant] | 0.419 | 0.519 | 0.389 | 0.533 | 0.573 | 1.35
CUACACUUCAAGCUAUCGGUC [Fam1B.1 aminoacylation ribozyme variant] | 0.746 | 0.87 | 0.692 | 0.876 | 0.608 | 0.833
AUUCUCCUAGGUCAUCAGGUG [Fam2.2 aminoacylation ribozyme variant] | 2.62 | 2.12 | 2.71 | 2.3 | 2.38 | 6.58
AUGUAUGCUAAUAGUCGCAAG [Fam3.1 aminoacylation ribozyme variant] | 1.67 | 1.62 | 1.14 | 1.39 | 1.95 | 3.25
CCACACCUCAAGCAAUCAGUC [Fam1B.1 aminoacylation ribozyme variant] | 0.804 | 0.843 | 0.6 | 0.856 | 0.558 | 1.26
CUACUUCAAAUAAGCGGUCUG [Fam1A.1 aminoacylation ribozyme variant] | 0.797 | 0.958 | 0.824 | 0.799 | 0.575 | 0.945
AAGUUCGCUAAUAGUCGCAGG [Fam3.1 aminoacylation ribozyme variant] | 2.87 | 2.54 | 3.87 | 1.89 | 2.2 | 2.51
CCACACUUCAACCAAUCGGUG [Fam1B.1 aminoacylation ribozyme variant] | 3.66 | 3.05 | 6.37 | 2.91 | 5.38 | 4.06
CGACUUCAAACAAUCGGUCGG [Fam1A.1 aminoacylation ribozyme variant] | 1.99 | 2.47 | 2.68 | 2.08 | 5.43 | 9.34
AAGUUUGCAAGUAGUCGCAAG [Fam3.1 aminoacylation ribozyme variant] | 1.06 | 0.95 | 0.731 | 0.914 | 1.06 | 1.14
CUUACCCCGGUCAUCGAGUGA [Fam2.1 aminoacylation ribozyme variant] | 6.51 | 3.44 | 6.2 | 3.92 | 6.76 | 19.8
AUUUCCCUUGUCAUCGAGUGA [Fam2.1 aminoacylation ribozyme variant] | 7.14 | 3.62 | 7.73 | 4.17 | 8.99 | 46
CUACUUCAAAGAAUGGGUCUG [Fam1A.1 aminoacylation ribozyme variant] | 0.708 | 0.79 | 0.74 | 0.665 | 0.459 | 0.335
AUUUACCUAGGUAAUCGGGUG [Fam2.2 aminoacylation ribozyme variant] | 2.75 | 1.85 | 3.42 | 1.78 | 2.92 | 17.3
AUUAUCCUUGUCAUCGAGUGA [Fam2.1 aminoacylation ribozyme variant] | 6.66 | 3.49 | 6.7 | 3.57 | 8.67 | 25.2
CUACUUAAAACAAUCGGUCGG [Fam1A.1 aminoacylation ribozyme variant] | 0.786 | 0.878 | 0.857 | 0.74 | 0.59 | 0.727
AAGUUCGCUAAUAGUAGCAAG [Fam3.1 aminoacylation ribozyme variant] | 1.55 | 1.67 | 1.28 | 1.26 | 1.24 | 3.5
CUACUUCAAGCAAUCGCUCUG [Fam1A.1 aminoacylation ribozyme variant] | 1.07 | 0.99 | 1.28 | 0.943 | 1.17 | 1.13

Sequence | self-aminoacylation (biotinyl-Met-oxazolone) | self-aminoacylation (biotinyl-Ile-oxazolone) | self-aminoacylation (biotinyl-Leu-oxazolone) | self-aminoacylation (biotinyl-Val-oxazolone) | self-aminoacylation (biotinyl-Trp-oxazolone) | self-aminoacylation (biotinyl-Phe-oxazolone)
AUUCACCUAGGACAGCGGGUG [Fam2.2 aminoacylation ribozyme variant] | 2.49 | 2.23 | 2.58 | 2.21 | 2 | 15.1
AUUCACCUACAUCAUCGGGUG [Fam2.2 aminoacylation ribozyme variant] | 3.63 | 2.19 | 3.91 | 2.06 | 3.07 | 22.1
CCAUACUUAAAGCAAUCGGUC [Fam1B.1 aminoacylation ribozyme variant] | 0.804 | 0.92 | 0.802 | 0.904 | 0.674 | 0.813
AUUCACCUAAGUCCUCGGGUG [Fam2.2 aminoacylation ribozyme variant] | 7.52 | 4.5 | 10.1 | 4.11 | 6.98 | 45.8
AUUACCAUGGUGAUCGAGUGA [Fam2.1 aminoacylation ribozyme variant] | 3.59 | 2.33 | 4.04 | 2.4 | 4.4 | 14.7
CCACACUUCAUGCAAUCGUUC [Fam1B.1 aminoacylation ribozyme variant] | 0.566 | 0.737 | 0.513 | 0.699 | 0.373 | 0.835
GCACUUCAAACAAUCGGUCUG [Fam1A.1 aminoacylation ribozyme variant] | 2.32 | 2.33 | 4.11 | 2.16 | 62.3 | 156
ACUCAUCUAGGUCAUCGGGUG [Fam2.2 aminoacylation ribozyme variant] | 6.28 | 5.55 | 6.97 | 5.04 | 7.26 | 42.4
AUACACCUAGGUCAUCGGGUA [Fam2.2 aminoacylation ribozyme variant] | 5.4 | 4.01 | 6.85 | 4.43 | 5.56 | 8.32
CUACUUCUAACAAUCGGUCUU [Fam1A.1 aminoacylation ribozyme variant] | 0.701 | 0.748 | 0.753 | 0.871 | 0.465 | 0.801
AAGUUCGCUAAUAGUCGGAAG [Fam3.1 aminoacylation ribozyme variant] | 0.621 | 1.2 | 1.17 | 0.743 | 1.07 | 2.48
AUCCUCCUAGGUCAUCGGGUG [Fam2.2 aminoacylation ribozyme variant] | 11.8 | 6.79 | 12.9 | 7.4 | 9.65 | 68.5
GUACUUCAAACAAUCGUUCUG [Fam1A.1 aminoacylation ribozyme variant] | 0.889 | 1.15 | 0.972 | 1.13 | 2.37 | 2.04
AUUACCAUGGUCUUCGAGUGA [Fam2.1 aminoacylation ribozyme variant] | 5.47 | 3.56 | 6.61 | 3.35 | 7.3 | 28
UAGUUUGCUAAUAGUCCCAAG [Fam3.1 aminoacylation ribozyme variant] | 0.851 | 1.03 | 0.805 | 0.864 | 1.37 | 2.1
AUUCACCUAGGUCAUCGGUUC [Fam2.2 aminoacylation ribozyme variant] | 1.43 | 1.33 | 1.19 | 1.43 | 1.07 | 4.35
AAGCUUGCUAAUAGUCGCACG [Fam3.1 aminoacylation ribozyme variant] | 1.29 | 1.81 | 1.6 | 1.76 | 1.33 | 4.41
AUGACCCUGGUAAUCGAGUGA [Fam2.1 aminoacylation ribozyme variant] | 5.08 | 2.7 | 5.39 | 2.8 | 6.37 | 23.9
ACACACCUAGGUCAUCGGGUG [Fam2.2 aminoacylation ribozyme variant] | 3.51 | 2.98 | 3.61 | 3.19 | 4.91 | 19
UUUACCCUGGUCAUAGAGUGA [Fam2.1 aminoacylation ribozyme variant] | 5.18 | 2.89 | 5.87 | 3.07 | 7.54 | 27.7
CUACUUCAAGCAACCGGUCUG [Fam1A.1 aminoacylation ribozyme variant] | 0.943 | 0.883 | 0.947 | 0.837 | 0.799 | 1.06
AUUCACCUAGGUCACGGGGUG [Fam2.2 aminoacylation ribozyme variant] | 4.08 | 2.98 | 5.76 | 3.03 | 4.51 | 22.1
AAGGUUGCUAACAGUCGCAAG [Fam3.1 aminoacylation ribozyme variant] | 1.06 | 1.33 | 1.83 | 1.11 | 1.65 | 3.97
CCACAUCUCAAGCAAUCGGUC [Fam1B.1 aminoacylation ribozyme variant] | 0.985 | 1.3 | 1.19 | 1.33 | 1.08 | 1.41
AUUGACCUAGGUCAUCGGGCG [Fam2.2 aminoacylation ribozyme variant] | 5.01 | 3.78 | 6 | 4.14 | 4.79 | 15
